Experimental data as given in article PMC3470543, “Effects of the Missense Mutations in Canine BRCA2 on BRC Repeat 3 Functions and Comparative Analyses between Canine and Human BRC Repeat 3” (PLoS ONE, 2012).
Residue numbers refer to the chain shown, from its start.

B1: Gal4-DBD-fused wild-type canine BRC3 [canine] / VP16 transactivation domain-fused canine RAD51 [canine] (parent complex)
chain 1: GQNIKDFDTFYLSFQTASRKNIRVSKESLNKARSLLNQKWTEEELNNFSDSLNSELLPGIDIKKTDISNHEVI
chain 2: MAMQMQLEANADTSVEEESFGPQPISRLEQCGINANDVKKLEEAGFHTVEAVAYAPKKELISIKGISEAKADKILTEAAKLVPMGFTTATEFHQRRSEIIQITTGSKELDKLLQGGIETGSITEMFGEFRTGKTQICHTLAVTCQLPIDRGGGEGKAMYIDTEGTFRPERLLAVAERYGLSGSDVLDNVAYARGFNTDHQTQLLYQASAMMVESRYALLIVDSATALYRTDYSGRGELSARQMHLARFLRMLLRLADEFGVAVVITNQVVAQVDGAAMFAADPKKPIGGNIIAHASTTRLYLRKGRGETRICKIYDSPCLPEAEAMFAINADGVGDAKD
B2: Gal4-DBD-fused wild-type canine BRC3 [canine] / VP16 transactivation domain-fused human RAD51 [human] (parent complex)
chain 1: B1 chain 1
chain 2: B1 chain 2 with S62N, T76A, G194A

Variants of: B1
Assay: mammalian two-hybrid assay; HeLa cells; luciferase activity determined 48 h after transfection; n = 3; read off a plot

response [Firefly/Renilla]	Variant
~3.5	chain 1 GQNIKDFDTFYLSFQPASRKNIRVSKESLNKARSLLNQKWTEEELNNFSDSLNSELLPGIDIKKTDISNHEVI
~120	chain 1 GQNIKDFDTFYLSFQTASRKNIRVSRESLNKARSLLNQKWTEEELNNFSDSLNSELLPGIDIKKTDISNHEVI

Variants of: B2
Assay: as above

response [Firefly/Renilla]	Variant
~2.2	chain 1 GQNIKDFDTFYLSFQPASRKNIRVSKESLNKARSLLNQKWTEEELNNFSDSLNSELLPGIDIKKTDISNHEVI
~34	chain 1 GQNIKDFDTFYLSFQTASRKNIRVSRESLNKARSLLNQKWTEEELNNFSDSLNSELLPGIDIKKTDISNHEVI
